What was measured:
[1] = target: T1, recombinant tau (rTau) (UniProt P10636-8 1-441, limits assumed); assay: direct ELISA on rTau coated at 15 ng/ml; antibody stored 4 weeks at pH 4, 40 C; Study 1
T1 construct: Coated at 'high' (1 ug/mL, simulates aggregated tau) or 'low' (15 ng/mL, simulates tau monomer) concentration; also called rTau Monomer
Procedure: (§1) Formulated samples are incubated for four weeks at 4° C. or 40° C. in an accelerated degradation study. Following incubation, binding affinity of the exemplified tau monoclonal antibody of Example 1 to rTau (15 ng/ml) coated on 96-well plates is determined by direct ELISA following the ELISA procedure substantially as described above.

[2] = target: T1, recombinant tau (rTau); assay: direct ELISA on rTau coated at 15 ng/ml; antibody stored 4 weeks at pH 6, 4 C; Study 2
Procedure: as §1

[3] = target: T1, recombinant tau (rTau); assay: direct ELISA, rTau coated at 'Low' concentration (15 ng/mL), simulates tau monomer
Procedure: (§2) 3690) at a concentration corresponding to 0.7 μg/ml of total tau. Plates are incubated overnight at 4° C., then washed three times with 150 μl of PBST (PBS containing 0.05% Tween-20), blocked in 100 μl BB3 (ImmunoChemistry Technology, p/n. 643) at room temperature for at least 1 hr (usually 2 hrs). Following blocking, the blocking buffer is removed from the wells. Exemplified tau monoclonal antibody of Example 1 and a humanized MC-1 antibody construct (having the framework combination: 5-51 heavy-chain, A27 light-chain) are diluted in 0.25% casein buffer to 1000 nM stock, then diluted serially 23 times with two fold dilutions. […] Reaction is stopped by adding 50 μl stop solution (2N H2SO4) and colorimetric signal is measured at 450 nm. […]
(§3) Selectivity of tau monoclonal antibody of Example 1 to tau aggregates versus tau monomer is determined by direct ELISA. […] The plates, coated with high or low concentrations of rTau, respectively, are exposed to exemplified tau monoclonal antibody of Example 1 and binding of exemplified tau monoclonal antibody to the respective concentrations of rTau is measured substantially as described in the ELISA assay above.

[4] = target: T2, human tau aggregates (human, UniProt P10636 2-758); assay: SPR (Biacore 2000), antibody captured on protein A, tau aggregate as analyte, 1:1 fit
T2 construct: analyte in SPR; also called fibril tau; tau fibril aggregate
Procedure: (§4) Surface Plasmon Resonance (SPR) assay, measured with a BIACORE® 2000 instrument (primed with HBS-EP+ running buffer (GE Healthcare, 10 mM Hepes pH7.4+150 mM NaCl+3 mM EDTA+0.05% surfactant P20) at 25° C.), is used to measure binding of exemplified tau monoclonal antibody of Example 1 to both human monomeric (e.g., native or non-aggregate) tau and human tau aggregates (both having the amino acid sequence as set forth in SEQ ID NO:13). Binding of humanized MC-1 antibody construct (having the framework combination: 5-51 heavy-chain, A27 light-chain) to human monomeric tau and human tau aggregate is measured in the same manner.
(§5) Except as noted, all reagents and materials are from BIACORE® AB (Upsala, Sweden). A CMS chip containing immobilized protein A (generated using standard NHS-EDC amine coupling) on all four flow cells (FC) is used to employ a capture methodology. […]
(§6) Data of binding to tau aggregate is processed using standard double-referencing and fit to a 1:1 binding model using Biacore 2000 Evaluation software, version 4.1, to determine the association rate (kₒₙ, M⁻¹ s⁻¹ units), dissociation rate (koff, s⁻¹ units), and Rₘₐₓ (RU units). The equilibrium dissociation constant (KD) was calculated from the relationship KD=koff/kₒₙ, and is in molar units. Data of binding to monomeric tau cannot be determined accurately by SPR as described above due to rapid on- and off-rates. […]

[5] = target: T1, recombinant tau (rTau); assay: direct ELISA on rTau coated at 15 ng/ml; antibody stored 4 weeks at pH 6, 4 C; Study 1
Procedure: as §1

[6] = target: T3, purified tau fibrils from AD brain homogenates (human, UniProt P10636-8 2-441, limits assumed); assay: direct ELISA on coated purified AD tau fibrils
T3 construct: Native brain-derived aggregated tau, coated at 0.7 ug/ml total tau; also called Purified AD Tau Fibrils; aggregate tau fibrils from AD brain homogenates
Procedure: (§7) Purified tau fibrils (50 μl) in PBS are coated on wells of 96-well plates (Coastar, p/n. 3690) at a concentration corresponding to 0.7 μg/ml of total tau. Plates are incubated overnight at 4° C., then washed three times with 150 μl of PBST (PBS containing 0.05% Tween-20), blocked in 100 μl BB3 (ImmunoChemistry Technology, p/n. 643) at room temperature for at least 1 hr (usually 2 hrs). Following blocking, the blocking buffer is removed from the wells. Exemplified tau monoclonal antibody of Example 1 and a humanized MC-1 antibody construct (having the framework combination: 5-51 heavy-chain, A27 light-chain) are diluted in 0.25% casein buffer to 1000 nM stock, then diluted serially 23 times with two fold dilutions. 50 μl of stock and serially diluted antibody (either exemplified tau monoclonal of Example 1 or humanized MC-1 antibody construct) are added to separate wells and incubated for 2 hours at room temperature, after which the plate is washed four times with 200 μl PBST per well. 50 μl of anti-human IgG-HRP antibodies (diluted at 1:4000 into 0.25% casein buffer) is added and incubated for 1 hour at room temperature, after which the plate is washed with 200 μl PBST per well 4 times. 50 μl of TMB/H2O2 is added and incubated at room temperature for about 10 minutes. Reaction is stopped by adding 50 μl stop solution (2N H2SO4) and colorimetric signal is measured at 450 nm. […]

[7] = target: T1, recombinant tau (rTau); assay: direct ELISA on rTau coated at 15 ng/ml; antibody stored 4 weeks at pH 6, 40 C; Study 1
Procedure: as §1

[8] = target: T3, purified tau fibrils from AD brain …; assay: direct ELISA on coated purified AD tau fibrils (0.7 ug/ml total tau)
Procedure: as §7

[9] = target: T1, recombinant tau (rTau); assay: direct ELISA on rTau coated at 15 ng/ml; antibody stored 4 weeks at pH 6, 40 C; Study 2
Procedure: as §1

[10] = target: T2, human tau aggregates; assay: SPR (Biacore 2000), antibody captured on protein A, tau aggregate as analyte, 1:1 fit; not normalized for avidity
Procedure: as §4, §5, §6

[11] = target: T1, recombinant tau (rTau); assay: direct ELISA, rTau coated at 'High' concentration (1 ug/mL), simulates aggregated tau
Procedure: as §2, §3

[12] = target: T1, recombinant tau (rTau); assay: direct ELISA, rTau coated at high (1 ug/mL) against low (15 ng/mL) concentration
Procedure: as §2, §3

[13] = target: T4, human monomeric (native or non-aggregate) tau (human, UniProt P10636 2-758); assay: SPR (Biacore 2000), antibody captured on protein A, tau as analyte, steady state fit
T4 construct: Full-length human tau in monomeric state; analyte in SPR; also called Monomeric Tau; monomeric tau
Procedure: as §4, §5, §6

[14] = target: T5, tau aggregates in sarkosyl-insoluble brain homogenate preps of 4.5 to 5 month old P301S mice; assay: cell-based or functional assay
[15] = target: T1, recombinant tau (rTau); assay: direct ELISA on rTau coated at 15 ng/ml; antibody stored 4 weeks at pH 4, 40 C; Study 2
Procedure: as §1

[16] = target: T5, tau aggregates in sarkosyl-insoluble …; assay: cell-based or functional assay; remark: listed apart in the source

T2 sequence (P10636 other isoform, or with tags, fused parts or gaps limits assumed): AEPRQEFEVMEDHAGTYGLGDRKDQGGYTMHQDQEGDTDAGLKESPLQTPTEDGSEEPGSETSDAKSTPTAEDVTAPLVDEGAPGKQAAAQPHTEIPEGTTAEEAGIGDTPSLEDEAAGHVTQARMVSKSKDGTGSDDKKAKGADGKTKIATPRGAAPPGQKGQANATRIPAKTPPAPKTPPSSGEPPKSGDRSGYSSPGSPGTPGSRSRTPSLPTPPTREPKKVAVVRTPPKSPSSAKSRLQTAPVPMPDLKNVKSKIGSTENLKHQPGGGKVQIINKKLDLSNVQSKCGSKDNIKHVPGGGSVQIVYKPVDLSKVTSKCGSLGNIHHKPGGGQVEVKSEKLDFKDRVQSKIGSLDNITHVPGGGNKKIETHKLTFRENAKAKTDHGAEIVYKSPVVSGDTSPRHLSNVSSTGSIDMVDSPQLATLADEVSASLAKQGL
T1 sequence (P10636 other isoform, or with tags, fused parts or gaps limits assumed): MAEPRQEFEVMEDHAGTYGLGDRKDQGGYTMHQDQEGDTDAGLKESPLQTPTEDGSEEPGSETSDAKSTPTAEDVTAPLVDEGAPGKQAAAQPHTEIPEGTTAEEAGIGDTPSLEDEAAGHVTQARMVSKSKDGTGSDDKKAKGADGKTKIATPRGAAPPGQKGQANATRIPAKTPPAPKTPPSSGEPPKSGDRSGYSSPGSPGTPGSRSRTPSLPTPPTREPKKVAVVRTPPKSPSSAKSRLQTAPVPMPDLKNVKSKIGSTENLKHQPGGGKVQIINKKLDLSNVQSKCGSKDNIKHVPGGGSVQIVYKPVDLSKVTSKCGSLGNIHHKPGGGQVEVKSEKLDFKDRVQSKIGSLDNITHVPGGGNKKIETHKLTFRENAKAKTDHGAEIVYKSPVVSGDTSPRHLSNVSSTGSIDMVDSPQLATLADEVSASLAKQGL

B1: exemplified tau monoclonal antibody of Example 1 (antibody, human IgG4 S228P, kappa, F234A L235A, V domains shown)
VH: EVQLVQSGAEVKKPGESLKISCKGSGYTFSNYWIEWVRQMPGKGLEWMGEILPGSDSIKYEKNFKGQVTISADKSISTAYLQWSSLKASDTAMYYCARRGNYVDDWGQGTLVTVSS
VL: EIVLTQSPGTLSLSPGERATLSCRSSQSLVHSNQNTYLHWYQQKPGQAPRLLIYKVDNRFSGIPDRFSGSGSGTDFTLTISRLEPEDFAVYYCSQSTLVPLTFGGGTKVEIKR
notes: Humanized IgG4 (HC framework 5-51), kappa LC (framework A27); expressed in CHO cells; Carries seven CDR changes relative to murine MC-1; also called exemplified engineered tau monoclonal antibody
[1]
  EC50: 0.414 nM
[2]
  EC50: 0.636 nM
[3]
  EC50: 0.723 nM
[4]
  koff: < 1e-05 s⁻¹
  kon: 45900 M⁻¹ s⁻¹
[5]
  EC50: 0.926 nM
[6]
  fold improved affinity (as measured by EC50) over humanized MC-1 antibody construct: 60 fold
[7]
  EC50: 0.754 nM
[8]
  EC50: 0.0068 nM
[9]
  EC50: 0.667 nM
[10]
  Kd: < 0.22 nM
[11]
  EC50: 0.006 nM
[12]
  fold improved affinity (as measured by EC50) to aggregate tau over monomeric tau: 120 fold
[13]
  Kd: 235 nM
[14]
  fold improvement in the inhibition of induced tau aggregate propagation (against humanized MC-1 antibody construct): ~30 fold
[15]
  EC50: 0.277 nM
[16]
  EC50 (representing inhibition of AT8-Positive Tau Aggregate propagation (ng/mL)): 16 ng/mL

Reference: patent US20180265577A1 (Eli Lilly, published 2018)
